This passage reports Kd results from patent US20240247069A1 (published 2024).

Holding throughout (experiment): Biacore
For orientation: SPR reads the build-up and loss of mass on a sensor chip optically.

Test [1] addresses T1, Mouse FGFR3b.mmh (REGN3215) (UniProt Q61851 21-801).
T1 chain: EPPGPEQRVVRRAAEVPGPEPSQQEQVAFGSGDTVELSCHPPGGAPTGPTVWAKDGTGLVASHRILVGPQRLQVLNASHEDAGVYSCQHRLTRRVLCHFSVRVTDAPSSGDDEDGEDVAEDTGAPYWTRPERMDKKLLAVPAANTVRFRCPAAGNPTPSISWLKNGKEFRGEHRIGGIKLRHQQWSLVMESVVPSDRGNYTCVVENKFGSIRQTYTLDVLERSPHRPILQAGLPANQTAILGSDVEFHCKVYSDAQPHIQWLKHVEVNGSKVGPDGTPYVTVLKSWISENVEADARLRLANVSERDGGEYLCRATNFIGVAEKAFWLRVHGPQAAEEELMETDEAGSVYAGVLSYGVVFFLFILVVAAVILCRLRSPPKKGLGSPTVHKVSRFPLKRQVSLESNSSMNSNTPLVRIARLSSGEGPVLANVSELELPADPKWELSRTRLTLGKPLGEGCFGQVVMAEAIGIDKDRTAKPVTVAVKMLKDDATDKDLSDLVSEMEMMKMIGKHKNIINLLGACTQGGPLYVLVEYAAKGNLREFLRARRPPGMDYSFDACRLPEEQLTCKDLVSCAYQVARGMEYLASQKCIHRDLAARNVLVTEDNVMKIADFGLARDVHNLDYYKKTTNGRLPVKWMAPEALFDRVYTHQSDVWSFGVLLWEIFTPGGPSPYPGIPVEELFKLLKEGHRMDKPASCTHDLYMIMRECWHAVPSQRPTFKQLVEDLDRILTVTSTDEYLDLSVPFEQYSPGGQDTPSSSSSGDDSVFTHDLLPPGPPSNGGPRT

Test [2] concerns the target T2, Human FGFR3b.mmh (REGN3152) (UniProt P22607 23-806).
T2 chain: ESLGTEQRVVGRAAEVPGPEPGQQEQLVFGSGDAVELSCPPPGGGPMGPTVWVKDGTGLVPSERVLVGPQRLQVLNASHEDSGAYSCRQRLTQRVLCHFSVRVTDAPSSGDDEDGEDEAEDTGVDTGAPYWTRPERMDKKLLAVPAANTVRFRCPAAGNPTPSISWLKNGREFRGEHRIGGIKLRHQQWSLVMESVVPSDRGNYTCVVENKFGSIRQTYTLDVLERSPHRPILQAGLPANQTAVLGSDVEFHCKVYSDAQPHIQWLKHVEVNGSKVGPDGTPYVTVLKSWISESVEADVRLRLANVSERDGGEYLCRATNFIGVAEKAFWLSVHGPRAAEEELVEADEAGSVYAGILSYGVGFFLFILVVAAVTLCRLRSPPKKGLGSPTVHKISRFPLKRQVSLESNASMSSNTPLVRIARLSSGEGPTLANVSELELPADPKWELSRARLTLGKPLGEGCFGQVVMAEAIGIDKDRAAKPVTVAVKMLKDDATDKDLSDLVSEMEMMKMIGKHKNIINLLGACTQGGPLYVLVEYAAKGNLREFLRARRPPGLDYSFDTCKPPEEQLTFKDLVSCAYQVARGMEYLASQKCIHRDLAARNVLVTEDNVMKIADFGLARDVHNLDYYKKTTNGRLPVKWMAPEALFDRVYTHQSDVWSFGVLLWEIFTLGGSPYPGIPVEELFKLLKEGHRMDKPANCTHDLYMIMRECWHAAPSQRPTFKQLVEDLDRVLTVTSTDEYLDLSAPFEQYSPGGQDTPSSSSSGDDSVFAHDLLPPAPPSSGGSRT

The target in test [3] is T3, Mouse FGFR3b (UniProt Q61851 21-801).
T3 chain: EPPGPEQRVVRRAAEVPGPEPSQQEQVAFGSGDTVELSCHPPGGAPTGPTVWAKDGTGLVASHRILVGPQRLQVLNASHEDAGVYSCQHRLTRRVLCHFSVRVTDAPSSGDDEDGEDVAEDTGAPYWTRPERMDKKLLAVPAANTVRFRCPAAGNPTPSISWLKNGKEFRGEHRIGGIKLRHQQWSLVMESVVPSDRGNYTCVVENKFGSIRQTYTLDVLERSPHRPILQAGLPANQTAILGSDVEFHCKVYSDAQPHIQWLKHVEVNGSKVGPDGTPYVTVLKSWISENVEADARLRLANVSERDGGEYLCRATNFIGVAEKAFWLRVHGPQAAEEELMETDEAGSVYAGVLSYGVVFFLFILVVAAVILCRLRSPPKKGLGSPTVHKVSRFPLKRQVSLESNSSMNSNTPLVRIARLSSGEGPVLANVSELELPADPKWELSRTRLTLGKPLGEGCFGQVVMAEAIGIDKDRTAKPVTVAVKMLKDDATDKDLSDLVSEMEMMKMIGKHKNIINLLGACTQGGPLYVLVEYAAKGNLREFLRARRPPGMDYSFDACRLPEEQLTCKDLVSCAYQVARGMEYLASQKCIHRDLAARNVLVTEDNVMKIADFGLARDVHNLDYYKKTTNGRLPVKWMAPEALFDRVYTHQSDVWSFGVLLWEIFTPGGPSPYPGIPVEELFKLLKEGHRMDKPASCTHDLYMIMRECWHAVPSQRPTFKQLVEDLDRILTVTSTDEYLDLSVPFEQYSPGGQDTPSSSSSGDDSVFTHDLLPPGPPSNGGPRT

Test [4] deals with T4, Human FGFR3b (UniProt P22607 23-806).
T4 chain: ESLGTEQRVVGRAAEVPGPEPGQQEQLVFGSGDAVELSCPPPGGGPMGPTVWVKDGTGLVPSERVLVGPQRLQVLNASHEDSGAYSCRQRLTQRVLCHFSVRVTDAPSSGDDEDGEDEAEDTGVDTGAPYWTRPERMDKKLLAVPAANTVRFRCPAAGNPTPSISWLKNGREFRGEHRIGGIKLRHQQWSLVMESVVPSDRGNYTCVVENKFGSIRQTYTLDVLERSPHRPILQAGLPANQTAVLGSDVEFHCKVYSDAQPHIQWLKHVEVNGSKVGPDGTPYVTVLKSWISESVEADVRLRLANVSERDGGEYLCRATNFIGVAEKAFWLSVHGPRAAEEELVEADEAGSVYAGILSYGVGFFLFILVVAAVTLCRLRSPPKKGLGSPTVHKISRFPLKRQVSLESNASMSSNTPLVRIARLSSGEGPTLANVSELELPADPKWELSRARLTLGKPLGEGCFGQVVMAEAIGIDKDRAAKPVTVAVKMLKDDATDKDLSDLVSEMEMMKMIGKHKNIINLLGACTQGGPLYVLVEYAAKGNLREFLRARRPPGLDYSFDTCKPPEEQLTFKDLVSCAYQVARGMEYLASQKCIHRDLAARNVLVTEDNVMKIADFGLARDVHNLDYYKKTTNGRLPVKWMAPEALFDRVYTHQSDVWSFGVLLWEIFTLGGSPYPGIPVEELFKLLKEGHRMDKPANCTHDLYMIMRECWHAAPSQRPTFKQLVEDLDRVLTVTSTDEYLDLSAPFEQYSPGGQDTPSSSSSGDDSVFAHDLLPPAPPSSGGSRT

B1: mAb063 (antibody, V domains shown)
VH: QVQLQESGPGLVKPSETLSLTCTVSGDSINSYFWSWIRQLPGKELEWIGHIYSSGSTRYNPSLQSRVTISIDTSKNQFSLKLSSVTAADTAVYYCARGASAVDYWGQGTLVTVSS
VL: EIVLTQSPGTLSLSPGERATLSCRTSQSISSGYLAWYQQKPGQAPRLLIYGASRRATGIPDRFSGSGSGTDFTLTISRLEPEDFVVYYCQQYGSSPYTFGQGTKLEIKR
By Kd is commonly meant the equilibrium constant for the complex coming apart. A higher Kd goes with a looser complex. In the case of B1, the dissociation constant Kd was 1.4 nM in test [1], 2.59 nM in test [2], 1.4 nM in test [3] and 2.59 nM in test [4].
